Test results as given in patent publication US11306156.

Biological target: tissue factor (TF) antigen (UniProt P13726)
Test: SPR (ProteOn), Fab captured on anti-penta-His, TF as analyte, 1:1 fit

Sequence of tissue factor (TF) antigen (P13726 33-251 limits assumed): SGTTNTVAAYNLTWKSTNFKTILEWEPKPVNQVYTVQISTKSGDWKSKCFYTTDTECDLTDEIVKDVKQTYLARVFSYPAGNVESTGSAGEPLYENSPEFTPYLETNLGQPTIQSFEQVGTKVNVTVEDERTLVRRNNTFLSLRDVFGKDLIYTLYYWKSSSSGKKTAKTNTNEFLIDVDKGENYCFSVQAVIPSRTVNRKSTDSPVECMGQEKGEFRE

Row | Change in KD with respect to wild type (-(log(KD design) - log(KD wt))) | Kd | Substance
1 | 0.05 | 0.14 nM | D3H44 Fab heterodimer, H S186K / L S131E
2 | 0.05 | 0.14 nM | D3H44 Fab heterodimer, H Q179K / L S131E
3 | -0.01 | 0.16 nM | D3H44 Fab heterodimer, H Q179R / L Q124E_T178E_T180E
4 | 0.09 | 0.13 nM | D3H44 Fab heterodimer, H S186K / L Q124E_S131T_T178Y_T180E
5 | -0.01 | 0.16 nM | D3H44 Fab heterodimer, H Q179K / L Q124E_S131T_T178Y_T180E
6 | -0.25 | 0.28 nM | D3H44 Fab heterodimer, H L143E_K145T / L Q124R
7 | -0.22 | 0.25 nM | D3H44 Fab heterodimer, H L143K_D146G / L Q124E_V133D
8 | 0.07 | 0.13 nM | D3H44 Fab heterodimer, H Q179R / L Q124E_S131T_T178Y_T180E
9 | 0.49 | 0.05 nM | D3H44 Fab heterodimer, H S186R / L Q124E_T178E_T180E
10 | 0.01 | 0.15 nM | D3H44 Fab heterodimer, H S186K / L Q124E_T178E
11 | -0.09 | 0.2 nM | D3H44 Fab heterodimer, H L143R / L Q124E_V133E

The next lines start with the substance.

Row | Substance | Change in KD with respect to wild type (-(log(KD design) - log(KD wt))) | Kd
12 | D3H44 Fab heterodimer, H L124A_Q179K / L Q124E_V133W_T180E | 0.1 | 0.12 nM
13 | D3H44 Fab heterodimer, H Q179K / L Q124E_T178E_T180E | 0.1 | 0.13 nM
14 | D3H44 Fab heterodimer, H L143R / L Q124E_V133E_S176L | -0.25 | 0.28 nM
15 | D3H44 Fab heterodimer, H S186K / L Q124E_S176L_T180E | 0.03 | 0.15 nM
16 | D3H44 Fab heterodimer, H Q179R / L Q124E_S176L_T180E | -0.02 | 0.17 nM
17 | D3H44 Fab heterodimer, H Q179R / L Q124E_S131T_T178F_T180E | 0.14 | 0.11 nM
18 | D3H44 Fab heterodimer, H S186K / L Q124E_T178E_T180E | 0.02 | 0.15 nM
19 | D3H44 Fab heterodimer, H L143E_K145T / L Q124R_T178R | 0.15 | 0.11 nM
20 | D3H44 Fab heterodimer, H L143R / L Q124E_V133E_Q160M | -0.21 | 0.25 nM
21 | D3H44 Fab heterodimer, H L143E_K145T_S188L / L Q124R_Q160K_T178R | -0.19 | 0.24 nM
22 | D3H44 Fab heterodimer, H Q179K / L Q124E_S176L_T180E | 0.28 | 0.08 nM
23 | D3H44 Fab heterodimer, H L143E_K145T_Q179E_S188L / L Q124R_T178R | -0.34 | 0.34 nM
24 | D3H44 Fab heterodimer, H L143A_Q179K / L Q124E_V133Y_T180E | -0.23 | 0.27 nM
25 | D3H44 Fab heterodimer, H L143K / L Q124E_V133D_S176L | -0.25 | 0.28 nM
26 | D3H44 Fab heterodimer, H S186K / L Q124E_S131T_T178F_T180E | -0.03 | 0.17 nM
